Assay results as given in article PMC7144918.

B1: BZ91/BZ107 25 bp duplex (dsDNA)
DNA 1: GATGCCTCCAAGGTCGACGATGCAG
DNA 2: CTGCATCGTCGACCTTGGAGGCATC
B2: BZ57/BZ109 25 bp Cy3 duplex (dsDNA)
DNA 1: GATGCCTCCAAGGTCGACGATGCAG
DNA 2: CTGCATCGTCGACCTTGGAGGCATC
modifications: internal Cy3 in backbone after nt 4 of each strand

Target: Ku70/80 heterodimer (Ku) (UniProt P12956;P13010 1-609;1-732)
Experiment: EMSA

Chain of Ku70/80 heterodimer (Ku) (P12956 whole entry, chain 1 of 2): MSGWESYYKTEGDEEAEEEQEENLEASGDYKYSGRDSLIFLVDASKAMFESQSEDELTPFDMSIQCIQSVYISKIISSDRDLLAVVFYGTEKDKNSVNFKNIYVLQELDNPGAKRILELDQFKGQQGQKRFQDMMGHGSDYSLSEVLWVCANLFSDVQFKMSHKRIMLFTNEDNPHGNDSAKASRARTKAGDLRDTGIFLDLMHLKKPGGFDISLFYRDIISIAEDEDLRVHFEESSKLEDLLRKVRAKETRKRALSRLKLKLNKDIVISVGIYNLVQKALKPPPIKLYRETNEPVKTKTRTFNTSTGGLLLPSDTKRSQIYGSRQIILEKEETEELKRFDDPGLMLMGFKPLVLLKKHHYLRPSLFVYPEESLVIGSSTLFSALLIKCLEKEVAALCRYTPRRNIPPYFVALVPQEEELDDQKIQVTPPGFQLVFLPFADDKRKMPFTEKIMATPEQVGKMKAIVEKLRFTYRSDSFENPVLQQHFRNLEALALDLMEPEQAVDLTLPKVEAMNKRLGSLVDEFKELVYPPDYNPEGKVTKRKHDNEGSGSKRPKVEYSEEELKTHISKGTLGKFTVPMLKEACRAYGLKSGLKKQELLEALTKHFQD
Chain of Ku70/80 heterodimer (Ku) (P13010 whole entry, chain 2 of 2): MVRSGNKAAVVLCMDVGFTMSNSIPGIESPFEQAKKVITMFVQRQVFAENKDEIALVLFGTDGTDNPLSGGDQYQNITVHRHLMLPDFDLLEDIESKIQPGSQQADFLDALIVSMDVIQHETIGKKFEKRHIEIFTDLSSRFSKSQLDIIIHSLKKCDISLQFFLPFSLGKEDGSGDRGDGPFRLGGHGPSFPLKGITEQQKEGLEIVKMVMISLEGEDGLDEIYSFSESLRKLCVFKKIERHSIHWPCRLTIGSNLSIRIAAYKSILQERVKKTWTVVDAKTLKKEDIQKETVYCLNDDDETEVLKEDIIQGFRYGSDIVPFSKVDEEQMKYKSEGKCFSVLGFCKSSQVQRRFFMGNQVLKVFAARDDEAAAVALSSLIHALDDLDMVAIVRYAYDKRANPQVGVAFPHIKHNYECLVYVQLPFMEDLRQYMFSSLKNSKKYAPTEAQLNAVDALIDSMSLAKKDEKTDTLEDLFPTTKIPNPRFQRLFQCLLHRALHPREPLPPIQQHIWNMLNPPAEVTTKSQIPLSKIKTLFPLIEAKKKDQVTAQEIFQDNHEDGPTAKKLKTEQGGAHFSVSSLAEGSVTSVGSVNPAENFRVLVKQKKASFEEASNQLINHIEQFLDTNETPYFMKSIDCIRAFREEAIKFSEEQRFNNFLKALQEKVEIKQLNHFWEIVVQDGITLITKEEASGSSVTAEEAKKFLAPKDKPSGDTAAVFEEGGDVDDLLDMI

Binder	Kd
B1	0.086 nM
B2	0.11 nM
